Numbering of substitutions follows the chain as printed. Entries after “also recorded” stand apart in the source; their conditions may differ.
T1: M2 muscarinic acetylcholine receptor (M2AchR) (Rattus norvegicus, UniProt P10980)
T1 construct: expressed in transfected cells; host or cells: HEK-293
T1 sequence (P10980 1-466): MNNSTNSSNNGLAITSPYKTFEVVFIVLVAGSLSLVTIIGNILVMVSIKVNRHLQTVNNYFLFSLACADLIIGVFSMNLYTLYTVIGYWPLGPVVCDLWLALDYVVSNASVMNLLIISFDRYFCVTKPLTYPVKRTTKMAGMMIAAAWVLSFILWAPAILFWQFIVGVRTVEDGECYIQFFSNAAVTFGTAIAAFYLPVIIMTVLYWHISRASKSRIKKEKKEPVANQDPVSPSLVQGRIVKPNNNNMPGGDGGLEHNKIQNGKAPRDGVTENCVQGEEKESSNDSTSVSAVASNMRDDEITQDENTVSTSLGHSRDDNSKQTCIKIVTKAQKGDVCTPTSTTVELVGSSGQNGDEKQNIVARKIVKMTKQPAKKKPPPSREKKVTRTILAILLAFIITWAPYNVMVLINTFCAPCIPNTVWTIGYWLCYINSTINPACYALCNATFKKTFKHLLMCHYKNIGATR

T2: dopamine D4 receptor (Mus musculus, UniProt P51436)
T2 construct: expressed in transfected cells; host or cells: HEK-293
T2 sequence (P51436 1-387): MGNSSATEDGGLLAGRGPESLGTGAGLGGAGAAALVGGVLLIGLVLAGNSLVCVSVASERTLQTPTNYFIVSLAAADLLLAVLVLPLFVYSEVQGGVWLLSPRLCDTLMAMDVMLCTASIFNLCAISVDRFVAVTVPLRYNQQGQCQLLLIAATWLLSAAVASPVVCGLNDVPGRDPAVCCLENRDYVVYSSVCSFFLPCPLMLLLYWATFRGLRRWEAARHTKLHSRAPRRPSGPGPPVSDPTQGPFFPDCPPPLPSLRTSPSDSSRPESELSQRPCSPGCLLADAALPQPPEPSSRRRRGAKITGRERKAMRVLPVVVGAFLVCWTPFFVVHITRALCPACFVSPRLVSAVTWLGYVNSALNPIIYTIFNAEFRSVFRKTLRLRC

B1: Gαs-Gα15-13: Gαs-based chimeric G protein, final 13 C-terminal amino acids substituted with those of Gα15 (protein)
chain: MGCLGNSKTEDQRNEEKAQREANKKIEKQLQKDKQVYRATHRLLLLGAGESGKSTIVKQMRILHVNGFNGEGGEEDVPDYASNSDGEKATKVQDIKNNLKEAIETIVAAMSNLVPPVELANPENQFRVDYILSVMNVPNFDFPPEFYEHAKALWEDEGVRACYERSNEYQLIDCAQYFLDKIDVIKQADYVPSDQDLLRCRVLTSGIFETKFQVDKVNFHMFDVGGQRDERRKWIQCFNDVTAIIFVVASSSYNMVIREDNQTNRLQEALNLFKSIWNNRWLRTISVILFLNKQDLLAEKVLAGKSKIEDYFPEFARYTTPEDATPEPGEDPRVTRAKYFIRDEFLRISTASGDGRHYCYPHFTCAVDTENIRRVFNDCRDSVLARYLDEINLL
modifications: Chimeric protein
notes: Gαs-based chimeric G protein, final 13 C-terminal amino acids substituted with those of Gα15
B2: Gαs-Gαi-13: Gαs-based chimeric G protein, C-terminal 13 amino acids of Gαs substituted with those of Gαi (protein)
chain: MGCLGNSKTEDQRNEEKAQREANKKIEKQLQKDKQVYRATHRLLLLGAGESGKSTIVKQMRILHVNGFNGEGGEEDVPDYASNSDGEKATKVQDIKNNLKEAIETIVAAMSNLVPPVELANPENQFRVDYILSVMNVPNFDFPPEFYEHAKALWEDEGVRACYERSNEYQLIDCAQYFLDKIDVIKQADYVPSDQDLLRCRVLTSGIFETKFQVDKVNFHMFDVGGQRDERRKWIQCFNDVTAIIFVVASSSYNMVIREDNQTNRLQEALNLFKSIWNNRWLRTISVILFLNKQDLLAEKVLAGKSKIEDYFPEFARYTTPEDATPEPGEDPRVTRAKYFIRDEFLRISTASGDGRHYCYPHFTCAVDTENIRRVFNDCRDVIIKNNLKDCGLF
modifications: Chimeric protein
notes: Gαs-based chimeric G protein, C-terminal 13 amino acids of Gαs substituted with those of Gαi
B3: Gαs-Gαo-13: Gαs-based chimeric G protein, final 13 C-terminal amino acids substituted with those of Gαo (protein)
chain: B2 chain with V382I, K385A, K389R, D390G, F394Y
modifications: Chimeric protein
notes: Gαs-based chimeric G protein, final 13 C-terminal amino acids substituted with those of Gαo
B4: Gαs-Gαz-13: Gαs-based chimeric G protein, final 13 C-terminal amino acids substituted with those of Gαz (protein)
chain: B2 chain with K385Q, D390Y, C391I, F394C
modifications: Chimeric protein
notes: Gαs-based chimeric G protein, final 13 C-terminal amino acids substituted with those of Gαz

Key:
Type in all cases: cell-based
[1] = biological target: T1, M2 muscarinic acetylcholine receptor (M2AchR); test: CRE-SEAP reporter gene assay, coupling of Gαs-based chimeric G proteins with M2AchR (transient); conditions: 10 uM acetylcholine; for increase in SEAP activity: HEK-293 cells cotransfected with chimera, M2AchR and CRE-SEAP
Method: The constructs encoding chimeric G proteins were made by substituting C-terminal amino acids of Gαs (SEQ ID NO: 1) with the corresponding C-terminal amino acid sequences of other Gα subunits. A first set of Gαs-based chimeric G proteins was prepared by designing constructs encoding seven Gαs-Gαi chimeras in which the C-terminal 5, 11, 13, 28, 65, 84, or 131 amino acids of Gαs were substituted with the corresponding C-terminal amino acids from the […]. Briefly, HEK-293 cells were cotransfected with chimera constructs together with the CRE-SEAP reporter gene construct and a cDNA encoding the M2 muscarinic acetylcholine receptor (M2AchR), a GPCR that couples to Gαo but not to Gαs and inhibits cAMP production. The transfected cells were cultured in the presence or absence of acetylcholine and then assayed for SEAP activity.
A series of chimeric constructs were prepared in which the final 13 C-terminal amino acids of the Gαs subunit were substituted with the final 13 C-terminal amino acids from Gαo, Gαz, Gαt, Gαq, or Gα15 subunits. Also tested were the Gαs-Gαi-13 and a chimera containing the last 5 C-terminal amino acids of Gαk (Gαs-Gαk-5 (SEQ ID NO: 2)). These chimeric constructs were tested for coupling with M2AchR. […] The Gαs-Gαo-13 (SEQ ID NO: […]) and Gαs-Gα15-13 (SEQ ID NO: 7) allowed approximately 2-fold increases in SEAP activity.
(§1) Chimeric G protein cloning: An insert containing rat Gαs cDNA was cut out using the restriction enzymes SaII and HinDIII, and ligated into pcDNA3.1(−) cut with XhoI and HinDIII. The chimeric G proteins with the desired C-terminal amino acid substitutions were prepared by PCR using Gαs as a template. More specifically, Gαs was PCR amplified between an internal EcoRI site and the stop codon, with a 3′ HinDIII placed immediately after the stop codon. A different 3′ oligonucleotide was used for each Gαs chimera and contained a 39 bp sequence that encoded the substituted amino acids at the C-terminus selected from the donor Gα subunit.
M2AchR GPCR cloning: Rat M2AchR receptor was cloned by PCR from cDNA templates (ATCC) and ligated into pcDNA 3.1(−) for expression in mammalian cells.
CRE-SEAP Reporter Gene Assay: 0.5×10^5 HEK-293 cells (ATCC) were seeded into each well of a 96 well plate 24 hours prior to transfection. cDNAs encoding M2AchR, SEAP reporters (Mercury Pathway Profiling System, BD Biosciences), and G protein chimeras were transfected into HEK-293 cells using lipofectamine reagent (Invitrogen) according to the manufacturer's protocols. […]
Following transfection, the cells were maintained for 48 hours in 200 ul serum free media containing 10 uM acetylcholine (Sigma). […] Fluorescence was then measured using a CytoFluor 4000 multi well plate reader (Applied Biosystems).

[2] = system: nine GPCRs that do not bind to Gαs (serotonin 1b, neuropeptide Y1, leukotriene B4, dopamine D4, GNRH, UDP, calcium-sensing, T1R2/T1R3); test: CRE-SEAP reporter gene assay, coupling of chimeric G proteins with a variety of GPCRs; conditions: HEK-293 cells, GPCR ligand 48 hours
Excerpt: (§2) The GPCRs examined were those that couple with Gαi/Gαo subunits (serotonin 1b, neuropeptide Y1, leukotriene B4, and dopamine D4), Gαq (GNRH, UDP, and calcium-sensing receptors), and the orphan mammalian sweet taste receptor complex (T1R2 and T1R3) with unknown coupling preference. The Gαs-based chimeric G proteins examined in this example were Gαs-Gαi-5, Gαs-Gαt-13 (SEQ ID NO: 3), Gαs-Gαo-13 (SEQ ID NO: 4), Gαs-Gαi-13 (SEQ ID NO: 5), Gαs-Gαz-6 (SEQ ID NO: 18), Gαs-Gα15-13 (SEQ ID NO: 7), Gαs-Gαk-5 (SEQ ID NO: 2), and Gαs-Gαq-13 (SEQ ID NO: 8). The chimeric G protein constructs were prepared as described herein. For the coupling assay, HEK-293 cells were cotransfected with each of the Gαs-based chimeric G protein constructs of interest together with the CRE-SEAP reporter gene construct and a cDNA encoding the GPCR to be tested. The transfected cells were cultured in the presence or absence of a GPCR ligand and then assayed for SEAP activity.
as §1, with “substitutions from the Gαi, Gαt, Gαo, Gαz, Gα15, Gαk, and Gαq” for “substitutions”
GPCR cloning: Mouse 5-HT1B, mouse dopamine D4, human GNRH, and human neuropeptide Y1 receptors were cloned by PCR from cDNA templates (ATCC) and ligated into pcDNA 3.1(−) (Invitrogen) for expression in mammalian cells. […]
(§3) Following transfection, the cells were maintained for 48 hours in 200 ul serum free media containing GPCR ligand. […] Fluorescence was then measured using a CytoFluor 4000 multi well plate reader (Applied Biosystems).

dopamine D4 receptor = biological target: T2, dopamine D4 receptor; test: CRE-SEAP reporter gene assay, coupling with dopamine D4; conditions: HEK-293 cells, 1 uM dopamine
Excerpt: as §2
Chimeric G protein cloning: An insert containing rat Gαs cDNA was cut out using the restriction enzymes SaII and HinDIII, and ligated into pcDNA3.1(−) cut with XhoI and HinDIII. […]
as §3

Row | Molecule | increase in SEAP activity [1] | ligand induced increases in SEAP activity mediated by M2AchR (in words) ([1]; HEK-293 cells) | GPCRs tested that coupled to the chimera [2] | coupling with dopamine D4 receptor (dopamine D4 receptor)
1 | B1 | approximately 2 fold | – | – | –
2 | B2 | – | Particularly effective; also recorded: highest responses | seven of the nine | –
3 | B3 | – | – | seven of the nine | permitted a response
4 | B4 | approximately 2 fold | – | – | –

Source: US9658208B2, “Methods and G proteins for screening and identifying ligands of G protein-coupled receptors” (Fred Hutchinson Cancer Research Center, priority 2011, dated 2017)
